In the supplement of paper PMC10724198:

System: Saccharomyces cerevisiae
Assay: protein stability index of tFT-peptide fusion in wild type (PSI (0-1 scale)); higher = more stable (slower turnover)
Details: genetic background: wild type
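Throughout, for protein stability index of tFT-peptide fusion in deletion strain of DOA10: PSI per variant is the weighted mean of its sequencing read distribution over the sorted stability bins, counting only variants with over 10 reads summed across bins.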
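Throughout, for protein stability index of tFT-peptide fusion in wild type: PSI derived as read-weighted mean over the 8 sorting bins, only variants exceeding 10 total reads kept, mCherry placed adjacent to the peptide and sfGFP distal.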

Row | Sequence | protein stability index
1 | GLYMCSVGCWMR | 0.253
2 | GLYMCSVGCWPR | 0.64
3 | GLYMCSVGCWQR | 0.629
4 | GLYMCSVGFWFR | 0.364
5 | GLYMCSVGPWFR | 0.656
6 | GLYMCSVGQWFR | 0.636
7 | GLYMCSVGWWFR | 0.499
8 | GLYMCYVGCWFR | 0.223
9 | GLYMQSVGCWFR | 0.287
10 | GLYMTSVGCWFR | 0.275
11 | GLYVCSVGCWFR | 0.2
12 | HVTRLDAIYFRI | 0.343
13 | IITLPMCPLLLR | 0.324
14 | LVTRLDAIYFRI | 0.234
15 | MVTRLDAIYFRI | 0.237
16 | NLVSLPILLFFR | 0.0961
17 | PITLPMCPLLLR | 0.471
18 | PSLRVLLPLYFR | 0.285
19 | PVTRLDAIYFRI | 0.425
20 | RSCRVLLPLYFR | 0.275
21 | RSLDVLLPLYFR | 0.244
22 | RSLFVLLPLYFR | 0.265
23 | RSLLVLLPLYFR | 0.344
24 | RSLRDLLPLYFR | 0.507

Row | Sequence | protein stability index
25 | RSLRELLPLYFR | 0.476
26 | RSLRHLLPLYFR | 0.45
27 | RSLRVGLPLYFR | 0.287
28 | RSLRVKLPLYFR | 0.195
29 | RSLRVLGPLYFR | 0.344
30 | RSLRVLLDLYFR | 0.64
31 | RSLRVLLPAYFR | 0.577
32 | RSLRVLLPHYFR | 0.663
33 | RSLRVLLPLLFR | 0.371
34 | RSLRVLLPLYFP | 0.634
35 | RSLRVLLPLYFRC | 0.218
36 | RSLRVLLPLYFRY | 0.259
37 | RSLRVLLPMYFR | 0.334
38 | RSLRVLLPNYFR | 0.64
39 | RSLRVLLPRYFR | 0.637
40 | RSLRVLLPVYFR | 0.278
41 | RSLRVLLPWYFR | 0.606
42 | RSLRVLPPLYFR | 0.273
43 | RSLRVLTPLYFR | 0.246
44 | RSLYVLLPLYFR | 0.261
45 | RVTMLDAIYFRI | 0.52
46 | RVTNLDAIYFRI | 0.55
47 | RVTREDAIYFRI | 0.625
48 | RVTRLCAIYFRI | 0.178

Row | Sequence | protein stability index
49 | RVTRLDAHYFRI | 0.684
50 | RVTRLDAIEFRI | 0.704
51 | RVTRLDAIMFRI | 0.496
52 | RVTRLDAIYFAI | 0.481
53 | RVTRLDAIYFFI | 0.471
54 | RVTRLDAIYFMI | 0.162
55 | RVTRLDAIYFRIL | 0.0595
56 | RVTRLDAIYFRW | 0.472
57 | RVTRLDAIYFRY | 0.447
58 | RVTRLDAIYFVI | 0.194
59 | RVTRLDAIYHRI | 0.662
60 | RVTRLDAIYIRI | 0.325
61 | RVTRLDAIYQRI | 0.664
62 | RVTRLDAIYTRI | 0.688
63 | RVTRLDAIYYRI | 0.582
64 | RVTRLDAPYFRI | 0.676
65 | RVTRLDAQYFRI | 0.668
66 | RVTSLDAIYFRI | 0.55
67 | RVYRLDAIYFRI | 0.321
68 | SLYMCSVGCWFR | 0.387
69 | TITLPMCPLLLR | 0.296
70 | TLYMCSVGCWFR | 0.375
71 | TVTRLDAIYFRI | 0.364

System: Saccharomyces cerevisiae
Assay: protein stability index of tFT-peptide fusion in deletion strain of DOA10 (PSI (0-1 scale)); higher = more stable (slower turnover)
Details: not given
Experimental: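 MPS profiling in S. cerevisiae of two library types built from selected 12-aa C-degron peptides (IN1, IN2, LN1, LN3, VN2, R1-R5, W1-W3, Atg1 and Rpa12 C-termini): saturation mutagenesis libraries and C-terminal +1 capping libraries (13 aa). Each peptide is fused to the C-terminus of a sfGFP-mCherry timer, after a GGGS linker. Cells are FACS-sorted into 8 mCherry/sfGFP bins and sequenced. PSI runs from 0 (unstable) to 1 (stable), measured once in wild type and in the das1Δ or doa10Δ background.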

Row | Sequence | protein stability index
72 | GLYMCSVGCWMR | 0.575
73 | GLYMCSVGCWPR | 0.67
74 | GLYMCSVGCWQR | 0.677
75 | GLYMCSVGFWFR | 0.545
76 | GLYMCSVGPWFR | 0.688
77 | GLYMCSVGQWFR | 0.671
78 | GLYMCSVGWWFR | 0.557
79 | GLYMCYVGCWFR | 0.423
80 | GLYMQSVGCWFR | 0.678
81 | GLYMTSVGCWFR | 0.709
82 | GLYVCSVGCWFR | 0.573
83 | HVTRLDAIYFRI | 0.702
84 | IITLPMCPLLLR | 0.597
85 | LVTRLDAIYFRI | 0.604
86 | MVTRLDAIYFRI | 0.653
87 | NLVSLPILLFFR | 0.629
88 | PITLPMCPLLLR | 0.648
89 | PSLRVLLPLYFR | 0.679
90 | PVTRLDAIYFRI | 0.693
91 | RSCRVLLPLYFR | 0.66
92 | RSLDVLLPLYFR | 0.685
93 | RSLFVLLPLYFR | 0.613
94 | RSLLVLLPLYFR | 0.638
95 | RSLRDLLPLYFR | 0.702

Row | Sequence | protein stability index
96 | RSLRELLPLYFR | 0.698
97 | RSLRHLLPLYFR | 0.693
98 | RSLRVGLPLYFR | 0.665
99 | RSLRVKLPLYFR | 0.667
100 | RSLRVLGPLYFR | 0.687
101 | RSLRVLLDLYFR | 0.654
102 | RSLRVLLPAYFR | 0.65
103 | RSLRVLLPHYFR | 0.683
104 | RSLRVLLPLLFR | 0.661
105 | RSLRVLLPLYFP | 0.657
106 | RSLRVLLPLYFRC | 0.476
107 | RSLRVLLPLYFRY | 0.606
108 | RSLRVLLPMYFR | 0.658
109 | RSLRVLLPNYFR | 0.673
110 | RSLRVLLPRYFR | 0.664
111 | RSLRVLLPVYFR | 0.632
112 | RSLRVLLPWYFR | 0.666
113 | RSLRVLPPLYFR | 0.697
114 | RSLRVLTPLYFR | 0.68
115 | RSLYVLLPLYFR | 0.619
116 | RVTMLDAIYFRI | 0.614
117 | RVTNLDAIYFRI | 0.677
118 | RVTREDAIYFRI | 0.699
119 | RVTRLCAIYFRI | 0.339

Row | Sequence | protein stability index
120 | RVTRLDAHYFRI | 0.71
121 | RVTRLDAIEFRI | 0.7
122 | RVTRLDAIMFRI | 0.686
123 | RVTRLDAIYFAI | 0.542
124 | RVTRLDAIYFFI | 0.495
125 | RVTRLDAIYFMI | 0.173
126 | RVTRLDAIYFRIL | 0.0992
127 | RVTRLDAIYFRW | 0.709
128 | RVTRLDAIYFRY | 0.722
129 | RVTRLDAIYFVI | 0.233
130 | RVTRLDAIYHRI | 0.723
131 | RVTRLDAIYIRI | 0.683
132 | RVTRLDAIYQRI | 0.707
133 | RVTRLDAIYTRI | 0.716
134 | RVTRLDAIYYRI | 0.716
135 | RVTRLDAPYFRI | 0.722
136 | RVTRLDAQYFRI | 0.683
137 | RVTSLDAIYFRI | 0.669
138 | RVYRLDAIYFRI | 0.587
139 | SLYMCSVGCWFR | 0.644
140 | TITLPMCPLLLR | 0.633
141 | TLYMCSVGCWFR | 0.614
142 | TVTRLDAIYFRI | 0.707
